What was measured:
[1] = target: hybrid chaperone protein ADGroEL–SacSm (Escherichia coli | Sulfolobus acidocaldarius); assay: dynamic light scattering; particle size under native conditions, Zetasizer Nano ZSP, 25 °C, detection angle 173°
[2] = target: Sm-like protein from Sulfolobus acidocaldarius (SacSm) (Sulfolobus acidocaldarius); assay: as above

Row | stoichiometry N [1] | stoichiometry N [2] | Substance
1 | 7 |  | hybrid chaperone protein ADGroEL–SacSm
2 |  | 7 | Sm-like protein from Sulfolobus acidocaldarius (SacSm) (natural protein)
